Experimental findings from patent US20230242658A1 (published 2023) are described below.

Numbering of substitutions follows the chain as printed. Names may count otherwise.

In test [1] the target is T1, human 4-1BB on CHO-K1 cells (human, UniProt Q07011 24-255).
T1 construct: whole, on cells; also called CHO-K1/hu 4-1BB; CHO-K1/hu4-1BB
As to the kind of experiment: FACS, CHO-K1/hu 4-1BB cells.

Test [2] deals with T2, human PD-L1 on CHO-K1 cells (human, UniProt Q9NZQ7 19-290).
T2 construct: whole, on cells; also called CHO-K1/hPDL1; CHO-K1/hPD-L1
As to the kind of experiment: FACS, CHO-K1/hPD-L1 cells.

For test [3], the target named is T3, histidine-labeled human 4-1BB protein (human, UniProt Q07011 24-186).
T3 construct: also called Human 4-1BB protein antigen (histidine-labeled); human 4-1BB protein and his tag (Acrobiosystem, #41B-H5227); not shown: histidine tag
The test can be described thus: BLI Octet RED96, AHC sensor, his-tagged antigen. The procedure: (§1) Specifically, human 4-1BB protein and his tag (Acrobiosystem, #41B-H5227), or cynomolgus monkey 4-1BB protein and his tag (Acrobiosystem, #41B-052H4), were diluted to 400 nM with PBS buffer (pH 7.4) containing 0.1% (w/w) BSA and 0.02% (v/v) Tween 20, and incubated with the AHC sensor. A 40 nM 4-1BB antibody was incubated with the AHC sensor loaded with human 4-1BB protein or monkey 4-1BB protein at 30° C. for 3 min. The reaction mixture was incubated in PBS buffer (pH 7.4) containing 0.1% (v/w) BSA and 0.02% (v/v) Tween 20 at 30° C. for another 5 min The binding and separation signals between the 4-1BB antibody and 4-1BB protein were recorded by Octet Red 96 in real time. The affinity and association and dissociation constants were determined by Octet using software.

The target of test [4] is T4, histidine-labeled cynomolgus monkey 4-1BB protein (cynomolgus monkey).
T4 construct: also called Monkey 4-1BB protein antigen (histidine-labeled); cynomolgus monkey 4-1BB protein and his tag (Acrobiosystem, #41B-052H4)
As to the kind of experiment: BLI Octet RED96, AHC sensor, his-tagged antigen. The method, then: as §1

T1 sequence (Q07011 24-255): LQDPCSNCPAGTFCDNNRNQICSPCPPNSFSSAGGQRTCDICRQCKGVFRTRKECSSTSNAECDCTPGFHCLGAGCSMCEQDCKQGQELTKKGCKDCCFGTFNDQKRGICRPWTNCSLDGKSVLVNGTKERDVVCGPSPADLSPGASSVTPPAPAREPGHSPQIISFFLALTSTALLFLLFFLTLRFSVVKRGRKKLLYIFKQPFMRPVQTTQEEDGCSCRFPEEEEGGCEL
T3 sequence (Q07011 24-186): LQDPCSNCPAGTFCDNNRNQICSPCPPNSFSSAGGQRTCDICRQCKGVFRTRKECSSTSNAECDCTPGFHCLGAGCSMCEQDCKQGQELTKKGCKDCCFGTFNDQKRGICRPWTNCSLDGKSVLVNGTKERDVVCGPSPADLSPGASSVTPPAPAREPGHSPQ
T2 sequence (Q9NZQ7 19-290): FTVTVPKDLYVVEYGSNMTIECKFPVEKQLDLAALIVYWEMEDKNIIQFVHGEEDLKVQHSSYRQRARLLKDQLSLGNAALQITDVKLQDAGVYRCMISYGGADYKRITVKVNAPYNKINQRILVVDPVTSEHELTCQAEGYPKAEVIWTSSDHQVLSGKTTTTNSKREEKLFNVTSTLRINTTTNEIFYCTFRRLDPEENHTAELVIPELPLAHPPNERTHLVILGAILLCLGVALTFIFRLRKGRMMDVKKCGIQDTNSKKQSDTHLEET

B1: PR001831 (antibody, human IgG1, V domains shown)
VH: EVQLVESGGGVIQPGGSLRLSCEASGFTFSSYAMSWVRQAPEKGLEWVSSISGSGDSTYYADSVKGRFTISRDNSKNTLYLQMNSLRAEDTAGYHCAKEGSNGTDDYHYDIDVWGQGTSVTVSS
notes: HCAb, heavy chain only, human IgG1 Fc; also called 1016P0015C8
The molecule B1 returned an EC50 in test [1] of less than 0.3 nM.

B2: PR001774 (antibody, human IgG1, V domains shown)
VH: EVQLVESGGGLVQPGGSLRLSCAASGFTFSSFAMTWVRQAPEKGLEWVSTISGSGDTTYYADSVKGRFTISRDSSKNTLYLQMNSLRAEDSAVYFCAKEATAMASDYYYGVDVWGQGTTVTVSS
notes: HCAb, heavy chain only, human IgG1 Fc; also called 1016P0045F7
For the molecule B2, in test [1], the binding result is on record as “binds”.

B3: PR001775 (antibody, human IgG1, V domains shown)
VH: EVQLLESGGGLVQSGGSLRLSCAASGFTFSSYAMSWVRQAPGKGLEWVSAISGSGGSTDYADSVKGRFTISRDNSTNTLYLQMNSLRAEDTAVYYCAKERAYDYSNYVDFDYWGQGTLVTVSS
notes: HCAb, heavy chain only, human IgG1 Fc; also called 1016P0046A9
On to B3, for which the binding result in test [1] was “binds”.

B4: PR003550 (bispecific antibody, human IgG1, kappa, L234A L235A)
light: DIQMTQSPSTLSASVGDRVTVTCRASQSIYIWLAWYQQKPGKAPNLLIYKASSLETGVPSRFSGSGSGTEFTLTISSLQPDDFATYYCQQYYGSSRTFGQGTKVEIKRTVAAPSVFIFPPSDEQLKSGTASVVCLLNNFYPREAKVQWKVDNALQSGNSQESVTEQDSKDSTYSLSSTLTLSKADYEKHKVYACEVTHQGLSSPVTKSFNRGEC
heavy: EVQLVESGGGLVQPGGSLRLSCAASGFTFSSYWMSWVRQAPGKGLEWVANIKQEGSEKYYVDSVKGRFTISRDNAKNSLYLQMNSLRAEDTAVYYCARDRAVAGAFDIWGQGTMVTVSSASTKGPSVFPLAPSSKSTSGGTAALGCLVKDYFPEPVTVSWNSGALTSGVHTFPAVLQSSGLYSLSSVVTVPSSSLGTQTYICNVNHKPSNTKVDKKVEPKSCDKTHTCPPCPAPEAAGGPSVFLFPPKPKDTLMISRTPEVTCVVVDVSHEDPEVKFNWYVDGVEVHNAKTKPREEQYNSTYRVVSVLTVLHQDWLNGKEYKCKVSNKALGAPIEKTISKAKGQPREPQVYTLPPSREEMTKNQVSLTCLVKGFYPSDIAVEWESNGQPENNYKTTPPVLDSDGSFFLYSKLTVDKSRWQQGNVFSCSVMHEALHNHYTQKSLSLSPGEPKSSDKTHTPPPPPRTEVQLVESGGGVVQPGGSLRLSCAASGFTFSNYAMTWVRQAPEKGLEWVSSISGSGVSTYYADSVKGRFTISRDNSKNTLYLQMTRLTAEDTAVYFCAKEGSSETDDHYYNVDVWGQGTTVTVSS
notes: PD-L1x4-1BB IgG-VH: PR000265 + VH of PR001760 at heavy-chain C-terminus
Take B4: the binding result in test [2] is listed as “binds”.

B5: PR004270 (bispecific antibody, human IgG1)
chain 1: EVQLVESGGGLVQPGGSLRLSCAASGFTFSSYWMSWVRQAPGKGLEWVANIKQEGSEKYYVDSVKGRFTISRDNAKNSLYLQMNSLRAEDTAVYYCARDRAVAGAFDIWGQGTMVTVSSASTKGPSVFPLAPSSKSTSGGTAALGCLVKDYFPEPVTVSWNSGALTSGVHTFPAVLQSSGLYSLSSVVTVPSSSLGTQTYICNVNHKPSNTKVDKKVEPKSC
chain 2: not shown
notes: PD-L1x4-1BB Fab-HCAb symmetric structure: Fab of PR000265, VH of PR001760, human IgG1 (L234A, L235A)
B5: the binding result in test [2] is “binds”.

B6: PR007289 (antibody, human IgG1, V domains shown)
VH: EVQLVESGGGLVKPGGSLRLSCAASGFTFSDYYMSWFRQAPGKGLEWVSYISSSGSTQDYADSVKGRFTISRDNAKNSLYLQMNSLRAEDTAVYYCAREREPVAGTLDFDNWGQGTPVTVSS
notes: HCAb, heavy chain only, human IgG1 Fc; also called R1016P145B11
B6: the binding result in test [1] is recorded as “binds”.

B7: PR007288 (antibody, human IgG1, V domains shown)
VH: B6 VH with S53G, T57I, Q58I, A97S, P102A, N111Y, P117L
notes: HCAb, heavy chain only, human IgG1 Fc; also called R1016P144G12
On to B7, for which the binding result in test [1] is listed as “binds”.

B8: PR007290 (antibody, human IgG1, V domains shown)
VH: B6 VH with L11V, K13Q, G16R, S56T, Q58I, P102E, N111Y
notes: HCAb, heavy chain only, human IgG1 Fc; also called R1016P145C05
On to B8, for which the binding result in test [1] was “binds”.

B9: PR001830 (antibody, human IgG1, V domains shown)
VH: EVQLLESGGGLVQPGGSLRLSCTASGFTFSNYAMSWVRQAPEKGLEWVSSISGSGGSTFYADSVKGRFTISRDNSKNTLYLQMNSLRAEDTAVYFCAKEGSSETDDHYYNVDVWGQGTTVTVSS
notes: HCAb, heavy chain only, human IgG1 Fc; also called 1016P0014G8
Regarding B9, in test [3], binding was characterised by a dissociation constant (Kd) of 24.9 nM, the Response stood at 0.307, the off-rate (koff) was 0.00664 s⁻¹ and the kon worked out at 266000 M⁻¹ s⁻¹. In test [4], this molecule came in with a dissociation constant (Kd) of 18.1 nM, a Response of 0.222, an off-rate constant (koff) of 0.00347 s⁻¹ and a kon of 192000 M⁻¹ s⁻¹. Moreover, in test [1], the EC50 is less than 0.3 nM.

B10: PR001763 (antibody, human IgG1, V domains shown)
VH: B9 VH with S85R, R87T, F95Y, S102N, E103G, H107Y, Y108H, N110D, V111I
notes: HCAb, heavy chain only, human IgG1 Fc; also called 1016P0016E9
With B10, in test [1], the binding result is given as “binds”.

B11: PR001833 (antibody, human IgG1, V domains shown)
VH: B9 VH with T23A, N31S, S101A, S102T, H107Y, Y108H, Y109F, V111T
notes: HCAb, heavy chain only, human IgG1 Fc; also called 1016P0016F8
For the molecule B11, in test [3], the dissociation constant (Kd) stood at 23.4 nM, the Response is 0.311, the koff amounted to 0.00506 s⁻¹ and the kon worked out at 216000 M⁻¹ s⁻¹. In test [4], the Kd came to 22.3 nM, the Response amounted to 0.273, the dissociation rate constant (koff) stood at 0.00309 s⁻¹ and the kon worked out at 139000 M⁻¹ s⁻¹. In test [1], this molecule came in with an EC50 of less than 0.3 nM.

B12: PR001764 (antibody, human IgG1, V domains shown)
VH: EVQLLESGGGLVQPGGSLRLSCAASGFTFSSYAMSWVRQAPEKGLEWVSAISGGGGSTYYADSVKGRFTISRDNSKNTLYLQMDSLKAEDTAVYYCAKEGTTETDDYHYNMDVWGQGTTVTVSS
notes: HCAb, heavy chain only, human IgG1 Fc; also called 1016P0022E5
Take B12: the EC50 in test [1] is less than 0.3 nM.

B13: PR001836 (antibody, human IgG1, V domains shown)
VH: EVQLLESGGGLVQPGGSLRLSCAASGFIFSNFAMTWVRQPPEKGLKWVSSINGSGFNTYYTDSVKGRFTISRDNSRNTLYLQMNRLTAEDTAVYFCAKEGSSETDDHYYNVDVWGQGTTVTVSS
notes: HCAb, heavy chain only, human IgG1 Fc; also called 1016P0020G4
For the molecule B13, in test [3], the Kd stood at 13.5 nM, the Response was found to be 0.294, the off-rate constant (koff) was found to be 0.00322 s⁻¹ and the on-rate constant (kon) was 239000 M⁻¹ s⁻¹. In test [4], this molecule yielded a dissociation constant Kd of 8.89 nM, a Response of 0.25, a koff of 0.00147 s⁻¹ and an association rate constant (kon) of 165000 M⁻¹ s⁻¹. This molecule yielded an EC50 in test [1] of less than 0.3 nM.

B14: PR001776 (antibody, human IgG1, V domains shown)
VH: EVQLLESGGGLVQPGGSLRLSCAASGFTFSSYAMSWVRQAPEKGLEWVSAISSSGGSTYYADSVKGRFTISRDNSKNTLYLQMNSLRAEDTAVYYCAKDGVTTPSYYYYYDMDVWGQGTTVTVSS
notes: HCAb, heavy chain only, human IgG1 Fc; also called 1016P0049C7
On to B14, for which, in test [1], the binding result is given as “binds”.

B15: PR001768 (antibody, human IgG1, V domains shown)
VH: EVQLLESGGGLVQPGGSLRLSCAASGFTFSNYAMTWVRQAPGKGLEWVSSISGSGDSTYYADSVKGRFTISRDNSKNTLYLQMNSLRAEDTAVYYCAKEGTGTTSDYYYNVDVWGQGTTVTVSS
notes: HCAb, heavy chain only, human IgG1 Fc; also called 1016P0039B9
On to B15, for which the binding result in test [1] is “binds”.

B16: PR001766 (antibody, human IgG1, V domains shown)
VH: B15 VH with N31S, T35S, V37G, D56G, G100K, S105G, N110D, V111M
notes: HCAb, heavy chain only, human IgG1 Fc; also called 1016P0034F10
With B16, the binding result in test [1] is recorded as “binds”.

B17: PR001781 (antibody, human IgG1, V domains shown)
VH: B15 VH with P14L, N31S, G42E, D56G, S57N, G100R, S105G
notes: HCAb, heavy chain only, human IgG1 Fc; also called 1016P007F3
Turning to B17, the binding result in test [1] is reported as “binds”.

B18: PR001842 (antibody, human IgG1, V domains shown)
VH: EVQLLESGGGLVQPGGSLRLSCAASGFTFSSYAMSWGRQAPGKGLEWVSAISGSGGSTYYADSVKGRFTISRDNSKNTLYLHMNSLRAEDTAVYYCAKEKVATTGDYYYDMDVWGQGTTVTVSS
notes: HCAb, heavy chain only, human IgG1 Fc; also called 1016P0045A3
As to B18, the binding result in test [1] is “binds”.

B19: PR001834 (antibody, human IgG1, V domains shown)
VH: B12 VH with S31G, S35T, A40P, A50S, G54S, G56N, S57N, Y59F, D84N, K87R
notes: HCAb, heavy chain only, human IgG1 Fc; also called 1016P0019C9
As to B19, the binding result in test [1] is “binds”.

B20: PR001837 (antibody, human IgG1, V domains shown)
VH: B12 VH with A23E, A50S, G54S, Y59F, D84N, K87R
notes: HCAb, heavy chain only, human IgG1 Fc; also called 1016P0024B10
Consider B20, for which, in test [1], the binding result is listed as “binds”.

B21: PR001771 (antibody, human IgG1, V domains shown)
VH: B15 VH with A40P, D56G
notes: HCAb, heavy chain only, human IgG1 Fc; also called 1016P0042C5
As for B21, in test [1], the binding result was “binds”.

B22: PR001780 (antibody, human IgG1, V domains shown)
VH: B2 VH with V5L, V12I, E42G, T57N, S74N, S91T, A100D, M103V, G110N, V111I
notes: HCAb, heavy chain only, human IgG1 Fc; also called 1016P0058D11
Take B22: the binding result in test [1] is “binds”.

B23: PR007381 (antibody, human IgG1, V domains shown)
VH: EVQLLESGGGLVQPGGSLRLSCAASGFTFSNYAMSWVRQAPGKGLEWVSSIDASGGDTYYADSVKGRFTISRDNSKNTLYLQMNSLRAEDTAVYYCAKEGSHGTDDSHYDVDVWGQGTTVTVSS
notes: HCAb, variant of PR001838 (F37V, P40A, E42G, T43K, K46E, G53A), human IgG1
On to B23, for which the binding result in test [1] is recorded as “binds”.

B24: PR004469 (antibody, human IgG1, V domains shown)
VH: B23 VH with V37F, A40P, G42E, K43T, E46K
notes: HCAb, PTM variant of PR001838 (G53A), human IgG1
As to B24, the binding result in test [1] was “binds”.
